According to US9358023B2, “Systems and methods for opening of a tissue barrier” (priority 2009, dated 2016):

B1: BDNF: BDNF Human Recombinant produced in Escherichia Coli, homodimer, non-glycosylated, 2×119 amino acids, 27 kDa (protein, UniProt P23560 19-247, looked up)
Neurotrophic factor BDNF …: APMKEANIRGQGGLAYPGVRTHGTLESVNGPKAGSRGLTSLADTFEHVIEELLDEDQKVRPNEENNKDADLYTSRVMLSSQVPLEPPLLFLLEEYKNYLDAANMSMRVRRHSDPARRGELSVCDSISEWVTAADKKTAVDMSGGTVTVLEKVPVSKGQLKQYFYETKCNPMGYTKEGCRGIDKRHWNSQCRTTQSYVRALTMDSKKRIGWRFIRIDTSCVCTLTIKRGR
modifications: E. coli-expressed, non-glycosylated homodimer
notes: BDNF Human Recombinant produced in Escherichia Coli, homodimer, non-glycosylated, 2×119 amino acids, 27 kDa

How the values were obtained:
[1] = system: blood-brain barrier; assay: Volume and duration of FUS-induced BBB opening with size-isolated microbubbles, by Gd-DTPA-BMA contrast-enhanced T1 MRI; assay type: in vivo, mice (C57BL/6)
Source text: Acoustic waves used were generated by a single-element, spherical-segment FUS transducer (center frequency: 1.5 MHz, focal depth: 60 mm, radius: 30 mm; Imasonic, France), which was driven by a function generator (Agilent, Palo Alto, Calif.) through a 50-dB power amplifier (E&I, Rochester, N.Y.) (for example as shown in FIG. 5). A central-void (radius: 11.2 mm) of the therapeutic transducer held a pulse-echo ultrasound transducer (center frequency: 10 MHz, focal length: 60 mm), which was used for imaging, with their two foci aligned. The imaging transducer was driven by a pulser-receiver (Olympus, Waltham, Mass.) connected to a digitizer (Gage Applied Technologies, Lachine, QC, Canada). A cone filled with degassed and distilled water was mounted onto the transducer system and was fitted with a polyurethane membrane (Trojan; Church & Dwight Co., Princeton, N.J.). The transducers were attached to a computer-controlled 3D positioning system (Velmex, Lachine, QC, Canada). The targeting procedure has been described herein. […]
BBB opening in the murine hippocampus was confirmed using a 9.4 T system (Broker Medical; Boston, Mass.). […] Vital signals were monitored and respiration rate was approximately 55 breaths/min. […] In the five cases where signal enhancement was detected on day 5, MRI sessions were repeated on day 7. […]

[2] = in vivo; cited from earlier work
[3] = system: ACHE (acetylcholine esterase); settings: dose-dependent induction of ACHE, rat basal forebrain primary septal culture; according to the supplier; cited from earlier work
[4] = system: blood-brain barrier; assay: Delivery of Alexa Fluor 594-tagged BDNF across the FUS-opened BBB, fluorescence of brain sections; settings: mouse sacrificed 20 min after sonication
[5] = system: phosphorylated MAPK (T202-T204); assay: Immunohistochemistry DAB stain intensity after FUS and BDNF: phosphorylated MAPK; assay type: in vivo, mice (C57Bl6)
Experimental: (§1) Immunohistochemistry was performed only in the case of BDNF. Five primary antibodies were used: two against phosphorylated TrkB receptor (p-Y816 rabbit polyclonal [ab75173] and p-Y515, rabbit polyclonal [ab51187]) purchased from Abeam Inc. (Cambridge, Mass.), and three against phosphorylated Akt (p-S473 rabbit monoclonal [#4060]), phosphorylated MAPK (p-T202/T204 rabbit monoclonal [#4370]), and phosphorylated CREB (p-S133 rabbit monoclonal [#9198]), all purchased from Cell Signaling Technology (Danvers, Mass.). Slides containing thin frozen sections (5-10 μm) were dried and placed in a citrate buffer (pH 6.0) for antigen retrieval using a microwave. Slides were allowed to cool for 20 minutes prior to a PBS rinse (3×5 min) and then incubated in 0.3% hydrogen peroxide in PBS (five min) to block endogenous peroxidase activity. Slides were washed again in PBS (3×5 min) and blocked in 10% normal goat serum with 0.1% BSA for 20 minutes. After blocking solution was removed, the primary antibodies were diluted in DAKO antibody diluent solution (1:50-1:300) and incubated for 60 minutes at room temperature. Slides were washed in PBS for five min and incubated with biotinylated secondary antibody (goat anti-rabbit 1:200; Vector Laboratories, Burlingame, Calif.) for 30 minutes at room temperature. […]

[6] = system: phosphorylated CREB (S133); assay: Immunohistochemistry DAB stain intensity after FUS and BDNF: phosphorylated CREB; assay type: in vivo, mice (C57Bl6)
Experimental: as §1

[7] = system: phosphorylated Akt (S473); assay: Immunohistochemistry DAB stain intensity after FUS and BDNF: phosphorylated Akt; assay type: in vivo, mice (C57Bl6)
Experimental: as §1

[8] = system: phosphorylated TrkB receptor (pTrkB Y816 and Y515); assay: Immunohistochemistry DAB stain intensity after FUS and BDNF: phosphorylated TrkB; assay type: in vivo, mice (C57Bl6)
Experimental: as §1

[9] = BDNF-administered mice, sacrificed 20-30 min, N=3

| Molecule | time to peak signal enhancement in the sonicated hippocampus after IP injection [1] | half-life of circulating BDNF [2] | ED50 [3] [µg/mL] | fluorescent intensity, sonicated hippocampus (left) vs un-sonicated hippocampus (right) [4] | mean percent change in DAB stain intensity between left and right hippocampal regions, pMAPK [5, 9] [%] | difference in DAB intensity between sonicated and control hippocampus, pMAPK ([5]; mouse sacrificed 3 min) | difference in DAB intensity between left sonicated hippocampus and control, pCREB ([6]; 3-min case) | mean percent change in DAB stain intensity between left and right hippocampal regions, pCREB [6, 9] [%] | difference in DAB intensity between left sonicated hippocampus and control, pAkt ([7]; 3-min case) | mean percent change in DAB stain intensity, pAkt, BDNF-administered mice vs control mice ([7]; sacrificed 20-30 min) | mean percent change in DAB stain intensity between left and right hippocampal regions, pTrkB (Y515 and Y816 combined) [8, 9] [%] | difference in DAB intensity between left sonicated hippocampus and control, pTrkB ([8]; mouse expiring 3 min after BDNF injection) |
| --- | --- | --- | --- | --- | --- | --- | --- | --- | --- | --- | --- | --- |
| CNC(=O)CN(CCN(CCN(CC(=O)[O-])CC(=O)NC)CC(=O)[O-])CC(=O)[O-].[Gd+3] [Gd-DTPA-BMA] | approximately 1 h | – | – | – | – | – | – | – | – | – | – | – |
| B1 | – | less than 10 min | 0.05 | much higher fluorescent intensity | 60.58 | No difference in DAB intensity | not | 56.91 | not | similar | 25.22 | observed |
